For test [1], the target named is T1, FcγRI (UniProt P12314 16-288, limits assumed).
T1 construct: Captured from a 100 nM solution on immobilized anti-His antibody; also called FcγRI receptor; FcγRIa
The test is described as follows: SPR steady state affinity (Biacore T100), FcγRI captured via anti-His antibody, antibody 1000-62.5 nM.
Protocol: (§1) Biacore T100 system (GE Healthcare) with high immobilized anti-His capturing antibody (GE Healthcare). Immobilization of the anti-His capturing antibody was performed on a CMS chip using the standard amine coupling kit (GE Healthcare) at pH 4.5 10 mM sodium acetate and 10 μg/ml anti-His solution. The immobilization level of anti-His reached more than 10.000 RU. FcγRI was applied in a 100 nM solution, in the running buffer HBS-P+ and captured with a pulse of 60 sec at a flow rate of 30 μl per min. […] The dissociation phase was monitored for 180 sec. The surface was regenerated by a 60 sec washing step with a 10 mM Glycine pH 1.5 at a flow rate of 30 μl per min. The stabilization period took 60 sec. The Biacore T100 evaluation software was used for data analysis.
(§2) For the steady state affinity concentration determination the response values from the end of association were used to plot the response against the concentration. The Biacore T100 evaluation software was used to calculate the affinity of samples for immobilized FcγRI receptor from the plot.

Test [2] concerns the target T1, FcγRI. The test is described as follows: SPR steady state affinity fit, FcγRI captured on anti-His antibody; beside it offset (RU) 26.88 and Chi² (RU²) 7.76.
Protocol: as §1, §2
Test [3] deals with T1, FcγRI. In words: SPR steady state affinity; reference is the IgG1 Wt affinity for FcγRI.
Protocol: as §1, §2
In test [4] the target is T2, FcγRIIIA (UniProt P08637 17-208, limits assumed).
T2 construct: Captured from a 200 nM solution on immobilized anti-His antibody; also called CD16
T2 sequence (P08637 17-208 limits assumed): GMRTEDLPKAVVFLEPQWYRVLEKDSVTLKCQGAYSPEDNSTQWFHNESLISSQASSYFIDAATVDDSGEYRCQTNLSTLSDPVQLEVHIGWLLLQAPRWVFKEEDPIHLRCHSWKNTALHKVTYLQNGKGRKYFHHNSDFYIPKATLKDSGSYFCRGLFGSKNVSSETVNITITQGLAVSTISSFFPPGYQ
The test is described as follows: SPR (Biacore T100), FcγRIIIA with His tag captured on immobilised anti-His antibody, antibody injected (Example 9).
Protocol: The SPR interaction analysis of captured FcγRIIIA and IgG1 Fc variants was performed on a Biacore T100 system (GE Healthcare) with high immobilized anti-His capturing antibody (GE Healthcare). Immobilization of the anti-His capturing antibody was performed on a CMS chip using the standard amine coupling kit (GE Healthcare) at pH 4.5 10 mM sodium acetate and 10 μg/ml anti-His solution. The immobilization level of anti-His reached more than 10.000 RU. FcγRIIIA was applied in a 200 nM solution, in the running buffer HBS-P+ and captured with a pulse of 60 sec at a flow rate of 30 μl per min. […] The dissociation phase was monitored for 180 sec. The surface was regenerated by a 60 sec washing step with a 10 mM Glycine pH 1.5 at a flow rate of 30 μl per min. The stabilization period took 60 sec. The Biacore T100 evaluation software was used for data analysis.

T1 sequence (P12314 16-288 limits assumed): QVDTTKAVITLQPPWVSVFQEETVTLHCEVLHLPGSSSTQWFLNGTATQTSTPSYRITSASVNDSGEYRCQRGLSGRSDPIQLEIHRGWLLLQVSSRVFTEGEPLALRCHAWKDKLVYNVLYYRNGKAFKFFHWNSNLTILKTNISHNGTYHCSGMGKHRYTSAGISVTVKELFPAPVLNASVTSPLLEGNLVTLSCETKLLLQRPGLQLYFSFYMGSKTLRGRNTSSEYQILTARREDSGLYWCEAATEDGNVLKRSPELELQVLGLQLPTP

B1: obinutuzumab N297D (antibody)
heavy: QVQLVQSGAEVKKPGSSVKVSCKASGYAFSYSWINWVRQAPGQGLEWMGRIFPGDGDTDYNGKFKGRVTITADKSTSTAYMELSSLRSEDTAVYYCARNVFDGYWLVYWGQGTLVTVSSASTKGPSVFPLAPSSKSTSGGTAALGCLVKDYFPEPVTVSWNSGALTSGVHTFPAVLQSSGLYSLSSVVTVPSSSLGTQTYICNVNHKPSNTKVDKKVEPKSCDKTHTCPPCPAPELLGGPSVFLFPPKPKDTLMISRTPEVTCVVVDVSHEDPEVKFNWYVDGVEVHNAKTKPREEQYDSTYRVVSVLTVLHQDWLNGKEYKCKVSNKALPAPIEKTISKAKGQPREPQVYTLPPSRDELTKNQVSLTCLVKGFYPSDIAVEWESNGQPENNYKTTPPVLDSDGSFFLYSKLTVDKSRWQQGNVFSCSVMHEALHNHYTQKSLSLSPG
VL: DIVMTQTPLSLPVTPGEPASISCRSSKSLLHSNGITYLYWYLQKPGQSPQLLIYQMSNLVSGVPDRFSGSGSGTDFTLKISRVEAEDVGVYYCAQNLELPYTFGGGTKVEIK
modifications: N297D removes the Fc N-glycosylation site, so the antibody is aglycosylated ('aglyco').
notes: IgG1 expressed in HEK-EBNA or HEK293 and purified by protein A and size exclusion chromatography; also called GA101 N297D; GA101 aglyco (N297D)
Turning to B1, the Kd in test [1] and in test [2] was 234 nM each time. In test [3], the “fold below the IgG1 Wt affinity” value is roughly 50 fold. In addition, the binding result in test [4] is on record as “no binding (tested: 1000 nM)”.

The values are drawn from patent US20190092872A1 (Hoffmann-La Roche, published 2019).
